Common to all, as to test: fluorescence polarisation
For orientation: Fluorescence polarisation rises when a labelled molecule tumbles more slowly, as on binding a larger partner.

For test [1], the target named is Trf4 NIM peptide (S. cerevisiae).
The next test addresses T1, Nrd1 CID R28D (S. cerevisiae, UniProt P53617 1-153, R28D).
T1 sequence: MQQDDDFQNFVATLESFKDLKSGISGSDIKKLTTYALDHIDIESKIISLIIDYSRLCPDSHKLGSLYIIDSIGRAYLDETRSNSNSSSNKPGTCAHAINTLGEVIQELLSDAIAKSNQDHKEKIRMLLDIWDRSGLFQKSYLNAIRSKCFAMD

The next test deals with T2, Nrd1 CID K21D (S. cerevisiae, UniProt P53617 1-153, K21D).
T2 sequence: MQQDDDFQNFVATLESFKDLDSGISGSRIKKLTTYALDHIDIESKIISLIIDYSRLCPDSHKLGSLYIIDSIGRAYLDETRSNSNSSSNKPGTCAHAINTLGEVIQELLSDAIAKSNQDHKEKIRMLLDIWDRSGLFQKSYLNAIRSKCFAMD

For the next test, the target named is T3, Nrd1 CID (S. cerevisiae, UniProt P53617 1-153).
T3 sequence: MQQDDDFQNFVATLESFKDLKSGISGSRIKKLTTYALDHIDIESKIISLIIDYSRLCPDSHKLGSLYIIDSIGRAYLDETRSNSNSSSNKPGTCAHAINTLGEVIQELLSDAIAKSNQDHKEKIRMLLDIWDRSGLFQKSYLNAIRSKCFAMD

In the next test the target is T4, Nrd1 CID L20D (S. cerevisiae, UniProt P53617 1-153, L20D).
T4 sequence: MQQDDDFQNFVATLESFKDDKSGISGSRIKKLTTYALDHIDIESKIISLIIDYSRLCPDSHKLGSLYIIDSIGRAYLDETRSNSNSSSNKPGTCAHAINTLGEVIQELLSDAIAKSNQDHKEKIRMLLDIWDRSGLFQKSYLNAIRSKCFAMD

The next test deals with T5, Nrd1 CID S25D (S. cerevisiae, UniProt P53617 1-153, S25D).
T5 sequence: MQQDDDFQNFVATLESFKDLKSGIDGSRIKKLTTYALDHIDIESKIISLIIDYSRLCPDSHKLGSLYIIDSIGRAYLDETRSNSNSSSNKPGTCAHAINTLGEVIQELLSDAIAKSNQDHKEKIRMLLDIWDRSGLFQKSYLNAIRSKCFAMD

No end group written: not given here. FAM = 5,6-carboxyfluorescein

B1: Nrd1 CID (domain or fragment)
chain: MQQDDDFQNFVATLESFKDLKSGISGSRIKKLTTYALDHIDIESKIISLIIDYSRLCPDSHKLGSLYIIDSIGRAYLDETRSNSNSSSNKPGTCAHAINTLGEVIQELLSDAIAKSNQDHKEKIRMLLDIWDRSGLFQKSYLNAIRSKCFAMD
With B1, in test [1], the Kd – broadly, the equilibrium constant for the complex coming apart – is 900 nM.

In the case of {FAM}-DDDEDDYTPSIS [Sen1 NIM peptide], the binding result in the test with Nrd1 CID R28D, with Nrd1 CID K21D, with Nrd1 CID L20D and in the test with Nrd1 CID S25D was “binds” each time. In addition, in the test with Nrd1 CID, the Kd stood at 1200 ± 20 nM.

The values are drawn from article doi:10.1101/433045 (bioRxiv, 2020).
